From US20230405144A1, “INDUCIBLE CELL DEATH SYSTEMS” (priority 2020, published 2023)

B1: Smac/Diablo: cell-death inducing toxin expressed from constructs SB05405 / SB05408 (protein)
chain: MAALKSWLSRSVTSFFRYRQCLCVPVVANFKKRCFSELIRPWHKTVTIGFGVTLCAVPIAQKSEPHSLSSEALMRRAVSLVTDSTSTFLSQTTYALIEAITEYTKAVYTLTSLYRQYTSLLGKMNSEEEDEVWQVIIGARAEMTSKHQEYLKLETTWMTAVGLSEMAAEAAYQTGADQASITARNHIQLVKLQVEEVHQLSRKAETKLAEAQIEELRQKTQEEGEERAESEQEAYLRED
modifications: Description of Unknown: Smac/DIABLO sequence
notes: cell-death inducing toxin expressed from constructs SB05405 / SB05408

Legend:
Type in all cases: cell-based
[1] = tested on: HEK293T cell line TL06776 (SB04397); assay: ACP repression of toxins: Incucyte confluency over 7 days; settings: BAX expressed in HEK293T cells that do not express the ACP
Experimental: (§1) Cell engineering and assessment: 5,000 HEK293T cells were plated in a 96-well flat bottom TC treated plate. Cells were transduced same day with 5,000 pg of specified constructs (based on p24 titer). Plate transferred to the Incucyte where images of the cell layer were captured at 4 images per well every 2 hours over the course of 7 days with 10× objective. Confluency was calculated using the Incucyte basic pipeline software to map phase overlay in each well.
Stable cell lines were generated to express an ACP including a transcriptional repressor. Cells were then lentivirally transduced to express the cell-death inducing toxin BAX or iCasp-9 under control of an ACP responsive promoter. The ACP transcriptional repressor includes a degron that in response to addition of an IMiD promotes ubiquitin pathway-mediated degradation of the peptides. Upon IMiD addition, degradation of the repressor leads to expression of the cell-death inducing peptide (see System 3; degron-tagged transcriptional repressor), as described in Example 1. […]
The cell line TL06776 was assessed following expression of degron domain-ZF-minKrab (SB04397) and percent confluency was quantified from pictures taken every 2 hours over course of 7 days in triplicate. […] Viability was further assessed as the ratio of confluency of a given sample relative to the confluency of non-transduced samples.

HEK293T cells [2] = assay: Screening pro-apoptotic toxins: Incucyte confluency over 11 days
Experimental: as §1, with “Plates were” for “Plate”, “11” for “7”, “overlay. Cells were split down to 5,000 cells per well on day 4.” for “overlay in each well.”
Cells were then lentivirally transduced to express the indicated cell-death inducing toxin.

HEK293T cells [3] = assay: Mifepristone-induced dimerization of iCasp9: annexin V / Sytox Red staining by flow cytometry; settings: cells transduced with SB03080, 10 uM Mifepristone, 24 hours
Experimental: Cell engineering and assessment: 24 hours before transduction 50,000 HEK293T cells were plated on a 24-well dish. Next day, cells were transduced with 50,000 pg of SB03080 (Progesterone receptor domain-Gly-Ser linker-iCasp9-IRES-red fluorescent protein) (based on p24 titer). Transduced cells were split into drug free media or media with 10 uM of Mifepristone 48 hours after transduction. 24 hours later, samples were stained for annexin V, a marker of apoptosis, and Sytox Red a live/dead stain and quantified by flow cytometry.
Cells were lentivirally transduced to express the toxin Caspase-9 with an IRES-red fluorescent protein (mKate) expressed under control of an SFFV promoter. The Caspase-9 protein includes a progesterone receptor domain. Upon Mifepristone addition, monomers of pro-apoptotic Caspase-9 oligomerize through binding of the progesterone receptor domain to Mifepristone (see FIG. 3A and System 1; chemical inducer of dimerization that activates the pro-cell death-inducing protein), as described in Example 1.

Molecule	decline in viability [1]	decline in viability of a heterogeneous population (HEK293T cells [2])	cell death (both apoptotic and by live/dead) (HEK293T cells [3])
Bax: cell-death inducing toxin expressed from constructs SB05403 / SB05406	70%	≤ 70%	–
CC#C[C@]1(O)CC[C@H]2[C@@H]3CCC4=CC(=O)CCC4=C3[C@@H](c3ccc(N(C)C)cc3)C[C@@]21C [Mifepristone]	–	–	increased cell death
B1	–	did not	–
